Paper PMC5623066

Molecular target: TDP2 used in vitro (construct not stated) (UniProt O95551)

Kd: 880 nM
Substance: SUMO2 used in vitro (from UniProt P61956 10-93) (natural protein)
